Measured values taken from patent US20240327502A1.

Tests used:
Assay in all cases: cell-based or functional assay
[1] = substrate: F protein of hMPV A virus (human metapneumovirus subtype A)
[2] = substrate: F protein of hMPV B virus (human metapneumovirus subtype B)
[3] = substrate: F protein of RSV B/Washington virus (respiratory syncytial virus B, Washington strain)

B1: M4A11 (antibody, V domains shown)
VH: QVQLVQSGSEVKRPGASVRVSCTASGYTFSNYGVSWMRQAPGHGLEWMGWISTHNQNVRYSQNFQGRVTVTTDTSTSTAYMDLRGLKPDDTAVYFCARMIPVGTTYTPYWTGWTPGGMDIWGQGTTVIVSS
VL: QSVLTQPPSASGTPGQRVIMSCSGTTSNIGRNFVYWYQQLPKEAPTLLIYGNDQRPAGVPDRFSGSTSGTSASLAISGLRSGDEADYYCATWDDSVNGPVFGGGTKLTVL
PRNT IC50 [1]: > 10 µg/mL
PRNT IC50 [2]: > 10 µg/mL

B2: M4A02 (antibody, V domains shown)
VH: EVQLVESGGGLVEPGGSLRLSCAASGFMFTSYAMHWVRQAPGRGLEWVSSITGGGNFVEYAVSVQGRFTVSRDNNQNSLYLQMNSLRVEDTAMYYCAREDYNSGANLHWFDPWGQGTLVTVSS
VL: QSVLTQPPSVSGAPGQRVTISCTGSSSNIGAFFDVHWYSHLPGTAPKLLIYGDRNRPSGVPERFSGSKSGASASLTITGLRAEDEADYYCQSYDRGLSAWVFGGGTRVTVL
PRNT IC50 [1]: 0.186 µg/mL
PRNT IC50 [3]: 0.0364 µg/mL
PRNT IC50 [2]: 0.0927 µg/mL

B3: M4A05 (antibody, V domains shown)
VH: EVQLVESGGGLVKPGGSLRLSCAAFGFSLSGYGMNWVRQAPGKGLQWVSSITASSSYITYRDSLRGRFTISRDNAQNSLYLDMTALRVEDTAVYYCATNGKLPPYFDHWGQGVLVVVSS
VL: QSVLTQPPSVSGAPGQRVTISCTGSGSNIGAGYDVHWYQQLPGTAPKLLIYDNNHRASGVPDRVSASWSGTSASLAITGLQAEDEADYYCQSYDRNLEGVVFGGGTKLTVL
PRNT IC50 [1]: 0.0569 µg/mL
PRNT IC50 [3]: 0.0295 µg/mL
PRNT IC50 [2]: 0.0425 µg/mL

B4: M3A06 (antibody, V domains shown)
VH: EVQLVESGGGLVKPGGSLRLSCAASGFTLTSYSMNWVRQAPGKGLEWVSSISSSSSYIHYADSVKGRFTISRDNAKNSVYLQMNSLRAEDTAAYYCARVARELDPFDMWGQGTVVTVAS
VL: QSVLTQPPSVSGAPGQRVTISCTGSSSNIGAGYDVHWYQQLPGTAPKLLVYANNNRPSGVPDRFSGSKSGTSASLAITGLQADDEADYYCQSYDRSLSGSVFGGGTKLTVL
PRNT IC50 [1]: 0.31 µg/mL
PRNT IC50 [3]: 0.0274 µg/mL
PRNT IC50 [2]: 0.416 µg/mL

B5: M3B02 (antibody, V domains shown)
VH: EVQLVESGGGLVKPGGSLRISCVASEFTLSGYAMNWVRQVPGKGLEWVSSISSSSSYINYADFVKGRFTISRDNAKNSVFLQLNSLRPEDTALYYCVRERPTAILPYLDLWGRGTLVTVSS
VL: QSVLTQPPSVSGAPGQRVTISCTGSSSNIGAGYDVQWYQQSPGTAPKLLIHGNNNRPSGVPDRFSGSKSGTSASLAITGLQAEDEADYYCQSYDRSLSGWVFGGGTKLTVL
PRNT IC50 [1]: 1.06 µg/mL
PRNT IC50 [3]: 0.0153 µg/mL
PRNT IC50 [2]: 1.54 µg/mL
